Test results from the DeepSol protein solubility set.

Test: soluble on expression in E. coli; label from the status in PepcDB or PDB records

Sequence | soluble on expression in E. coli
MFSVFEWILIFFGILNWFKFTQPSTPEPASRFFTRVCQQLRETVLIEIDSSGRVQPFVSIVEEGSKPYFSPHVGCAECMQWWDVYGEQPHRVEETEDQDTDEGVEEESEIEDSDFDDQITFVKPTTPAPLSPETENFIEDKMKFHFQATDIINEYLGKGTDMGIVSNLIRISQTYGVQLKQVSSGKSSMKEIEGILKSLQKEFEQEIEGLNGEISEAEENNESDIDESFEFVENLELDSDFE | not soluble
MFTIKKATTNDIQLINEMAQIVFPATYREILSKEQLDYMMDWMYSPKNLRKQMEEEGHIYYIAYKDGEAAGYVSIQPEGEHLFHLQKIYVLPLFQGCRLGKALFEQAVKAIKEIHPGPCEMHLNVNRNNKALQFYQHLGMEKVAEGDFHIGNGYYMNDYIMGLKI | not soluble
MFVDRIVLSFRGAGLERANTCLRKGQRLRKACSHVFRPLCSSDLPVNLPTDLETKRVMKPPLAERESIWSYPRPPRVEPNTRHLRVVHNQVTIAETRRGYRVLEYSHPPSYYIPLDDIDLQYVMVSSKVRSTFCEFKGEATYYDVEVGWEVSEGAAWSYDFPTRAYRMLKDHIAFYPAKVDACWVDEYRVRPEPRSFYGGWVTPLVKGVYPEEDVEDDEDSSGGDGKDSATQ | soluble
MFVTQQLKLMGTVIDIQIESDKACQQLSRVIDLLYTYKNRFSANDSNSELMAINQAAGVKPVSVHSDLFNLIQIGKAHSLSTPSNLNIAIGPLVQAWRIGFEDARVPSHNLISQQLALTDPRQVLIDDKKQTVFLQQVGMALDLGALAKGYITDKIMAYLIEDGIDSALINLGGNVRVHGPNPKSPDKTFRIGIQKPDAKRGQHLGVIKVNNHSVVTSGIYERQFTSKGKQYHHILDRQTGYPIETDMLSLTIMAPSSFYCDIWTTRLFGLDSSMIITLLNTFDNIEGLLVTRKHHVLMSNGLRHYFQPYYH | not soluble
MFVVAVANTKGGCGKTTLATHLAASFACRGYATGLADLDRQKSALGWLKRRPEGAAPIQGINLAREEDIPEGIERLVVDAAAAMDKDVVKDIVRRADLVVVPVLPGVFDEDGTARFVGHLESLKSIRKNRRDVAFVANRVRLNTRALTRLGGFLEELSFPVIARLRDTQHYTAAAAEGLSLFDLPGGRAADYRAEWTPLLDFIEIRVRG | soluble
MGDDEARSWIRGDETAKQMLSRVLKDRAFLLIPPLHRVPLRAGNVVEITGASTSAKTQILIQAAISCILPKTWNGIHYGGLGKLVLFLDLDCRFDVLRLSQMLKHRLLQANWLGNGAWWQLEESNVKSCKSAEEKTKTVFDEELYASCMKRFLYVRCYDSLELLSSLKTLHYRIQQQEACGSQVGVLMIDSIGAFHWTDRLSSSLALETHNRKSLSLTNVVETIVQELKKLLLVHSLVVLATKGTIYEEKYPANENNRKVSSNDHFSGNVASKAQQPPFREFMPSSWQAFVTHKIIIRKSADYQSLQTGQQNLLAYSLEWLQPQLSRIDRFIVDDVRKLTTIKPFYSKLLLIYIVIPASSSHAVWYCHCLVT | soluble
MGDIEDAPRIISGIGELDRATGGGFVRGSALLVGGDPGIGKSTLLTQAAAALASRGHRIVYVSGEEAVAQIRLRAQRLGVADSPVELAAETNVEDILATIADGKRPDLVILDSIQTLWTDLADSAPGTVTQVRAAAQAMIRYAKSTGAAIVLVGHVTKEGQIAGPRVVEHMVDGVLYFEGEGGHHYRILRTVKNRFGLEHHHHHH | not soluble
MGDTTFLIEFDHPAAVYSPGQNVAGKLTIRNRNALNALALKICIHGDIETLWRKFENKGRYDRHGRWYRSSEHINYTSKINVLEGIAQPWSSIENANNKIPGGVNIFPFLFQLPANLPPSFEGTHGNVRYSVHVELDRPWRMNVEAKRVFSVIPVIDLNSIPKTINPMIVSSCKHSGLFSNKEVKVKISIPKSGYIPGETIQVSALIQNHTKKPIYSIKAKLEQHVHYQAQQENSHLFPEEHCHKHCEHKTAQTTMSKVEKSCHVEFCSNSQINVPLVLPNQLVPSFRTGIIEVDYCIIVDIGENKKLRCELPITVGTIPIGVFTRPIAYSITEAPPKYENFSQIVEDSQASAPPPEYENEEHF | not soluble
MGEAAYVTVSALTKYIKRKFDVDPHLENIWIKGELSNVKIHTRGHIYFTLKERKGRMQSVMFARQSERLPFKPENGMKVLVRGGISVYEPSGNYQLYAKEMQPDGVGALYLAYEELKKKLAGEGLFDDRYKKQIPAFPATIGVVTSPTGAAVRDVITTLKRRYPLVKVIVLPALVQGENASRSIVTRIEEANEKEICDVLIVGRGGGSIEELWAFNEEIVARAIFASNIPIISAVGHETDFTISDFVADIRAATPTGAAEIAVPHTTDLIERTKTAEVRMTRAMQQHLGQEKGRIQTLQSSYAFRFPKRLYAQKEQQFDLAYQQFQAQLTALLDRKSRQLERETYRLEALHPHEQLKQARTRYQEQTNQLRKNMNIQMKQLHSQFQTVLGKLNALSPLQVMERGYSLAYKEDKLIKSVSQIEEQDRLEIKLKDGVLTCEVLEKRGEEK | not soluble
MGEIADSLAGLTISVVSPDNQLAATVRRRREVTVHFRPGSYERYDARTLETQLSQLFTLVMSGYRQGYMSVMEAHDMTVMADASDVDTEAGRIVRRRRDETVALGESAQGMVRAKTRGLSEWRFKIADGALSRLSEEQFTAEIHGAFMNVMADWSRRVRRIHWEVFSPDRVPAAGR | not soluble
MGENITTRGVDLLGLPTGTRLRLGESALVELTGLRNPCSQLDNYQPGLTAAVLGRDEQGNLIRKAGVMAIVLEDGEVRPGDAIDIQLPPLPHRALEKV | not soluble
MGFEDLVEVTTMIADLTTDQREALLLTQLLGLSYADAAAVCGCPVGTIRSRVARARDALLADAEPDDLTG | soluble
MGFGFRHILTEREFTRSFAIQRKLKVIAEEIKADVIITHDTGCTTTFEKNQWIGKAHGMYYPVAVMSDVMFSALACGAHPFKVVQLYWNCSNYEPLLEKMGITNWRELKKEWEDTVKYIAELEKQGKYDELLEFFKEYDLYEPYSKTSDGFKLRKSATADLPLFKS | not soluble
MGFKRLLASLGAGGASVETVLTEVNVVPGGVVQGEVRIQGGSVNQAIEGLSVGLQAKVEVEGHDDQEYKQDIEFAKLSLGGAFELQAGAVHAVPFGLEIPWETPITMIDGQALRGMNIGVTTELEIARAVDSGDLDPVNVHPLPAQKAILDAFVQLGFRFKNADMERGHIRGTRQRLPFYQEIEFFPPSQYRGLNQVELSFVADDREMDVILEMDKKPGLFSEGSDSYRSFQVGLNDFQGTDWTAYLHQWLSEVGSKRSWF | not soluble
MGFLKGKKGLIVGVANNKSIAYGIAQSCFNQGATLAFTYLNESLEKRVRPIAQELNSPYVYELDVSKEEHFKSLYNSVKKDLGSLDFIVHSVAFAPKEALEGSLLETSKSAFNTAMEISVYSLIELTNTLKPLLNNGASVLTLSYLGSTKYMAHYNVMGLAKAALESAVRYLAVDLGKHHIRVNALSAGPIRTLASSGIADFRMILKWNEINAPLRKNVSLEEVGNAGMYLLSSLSSGVSGEVHFVDAGYHVMGMGAVEEKDNKATLLWDLHKEQ | soluble
MGGEQRETNLSIRGKAYIVGAFEHPLRYAPAHSVAQLHAECALGALADAGLTLADVDGYFCAGDAGASPATLVDHMNLRLRHVDGTEIGGGSYLALIGHAAQAIASGKCRVALITLAGKPRSAGQATGTEARQPGPDRPASAWEAPYRWTVAGIYGNFARRHMHEYGTTSEQLAWVKVAASHHAQHNEHALLRKVYSVEDVLASPMIADPLHRLDCCVITDGGGALVLAAPEVARSLARPRIRVLGCGETIRTNNGGHHADMLHTGAQRSGPAAFAEAGVTPADIKYASVYDNFTIMVIMQLEDLGFCEKGAGGRFVADGNLISGTGRLPWNTDGGGLCNNHPANRGGITKAIEAVRQLRGEAHPSVQVPNCDLALAAGPGLVFGVGHSHATVILERE | not soluble
MGGGGEDEYESLPTHSVPVHLTAGALAGAVEHCVMFPFDSVKTRMQSLCPCPETKCPTPVHSLMSIVKREGWLRPLRGVNAVAAGSMPAHALYFTVYEKMKGYLTGNSAGHSNTLAYGASGVVATLIHDAIMNPAEVVKQRMQMAFSPYGSSLECARCVYNREGVAAFYRSYTTQLAMNVPFQAIHFMSYEFWQHVLNPEHKYDPKSHLIAGGLAGGLAAALTTPMDCVKTVLNTQQAAEADPANRRIFLQARYRYRGISDAVRTIYSQRGLSGFSCGLQARVIFQVPATALSWSVYELFKFMLSFEGGHSS | not soluble
MGGIYRLSLKSTEATAERLSCDTRCNYEDRDLAYSPDGRWLAIARRFSNISEDIFIRDLASAHEKRLTQGLEDIRGLSWTPDSQALVFATEDSGSSNGFTLDINTAQIRSLDVEGMSYPSSVSAEGELVYHQYHRQFQMAYFSLGDKVPGSLFPLLYSGVSHRNPDYSPEAKRIVFVSSETGYNEIWTSDINGQKLEQLTQLKSRVAYPRWSPDGSRIAFIAPDDRNEGNRIFILDLTNKNITALASSYHNHGRPSWNWQGTAVLASTADGITEFYLDNRAPRVISSLSMAVGFAKSATELVFSRDGENGLWQINLTQPEHVEQLISTDAFRAGNNWVLTASGVYFKSSNGHEQLLNYWEASSQQVTSLLRVPRSSLSGFGSMTYIPEANRLVMTLDGFPQRDIILLKHKLLKLEHHHHHH | soluble
MGGSHHHHHHGMASALRTDKKSEFLKALKRDRVEEEHEDESRAGSEKDDDSFNLHNSNSTHQERDINRNFDENEIPQENGNASVISQQIIRSSTFPQTDVLSSSLEAEHRLLKEMGWQEDSENDETCAPLTEDEMREFQVISEQLQKNGLRKNGILKNGLICDFKFGPWKNSTFKPTTENDDTETSSSDTSDDDDV | not soluble
MGGSHHHHHHGMASAVNVYSTSVTSDNLSRHDMLAWINESLQLNLTKIEQLCSGAAYCQFMDMLFPGSIALKKVKFQAKLEHEYIQNFKILQAGFKRMGVDKIIPVDKLVKGKFQDNFEFVQWFKKFFDANYDGKDYDPVAARQGQETAVAPSLVAPALNKPKKPLTSSSAAPQRPISTQRTAAAPKAGPGVVRKNPGVGNGDDEAAELMQQVNVLKLTVEDLEKERDFYFGKLRNIELICQENEGENDPVLQRIVDILYATDEGFVIPDEGGPQEEQEEY | not soluble
MGGSHHHHHHGMASLAPGSSRVELFKRKNSTVPFEESNGTIRERVVHSFRIPTIVNVDGVMVAIADARYETSFDNSFIETAVKYSVDDGATWNTQIAIKNSRASSVSRVMDATVIVKGNKLYILVGSFNKTRNSWTQHRDGSDWEPLLVVGEVTKSAANGKTTATISWGKPVSLKPLFPAEFDGILTKEFIGGVGAAIVASNGNLVYPVQIADMGGRVFTKIMYSEDDGNTWKFAEGRSKFGCSEPAVLEWEGKLIINNRVDGNRRLVYESSDMGKTWVEALGTLSHVWTNSPTSNQQDCQSSFVAVTIEGKRVMLFTHPLNLKGRWMRDRLHLWMTDNQRIFDVGQISIGDENSGYSSVLYKDDKLYSLHEINTNDVYSLVFVRLIGELQLMKSVVRTWKEEDNHLASICTPVVPATPPSKGGCGAAVPTAGLVGFLSHSANGSVWEDVYRCVDANVANAERVPNGLKFNGVGGGAVWPVARQGQTRRYQFANYRFTLVATVTIDELPKGTSPLLGAGLEGPGDAKLLGLSYDKNRQWRPLYGAAPASPTGSWELHKKYHVVLTMADRQGSVYVDGQPLAGSGNTVVRGATLPDISHFYIGGPRSKGAPTDSRVTVTNVVLYNRRLNSSEIRTLFLSQDMIGTDGGAGTAA | soluble
MGGWSNFKFLFLSPGGELYGVLNDKIYKGTPPTHDNDNWLGRAKKIGDGGWNQFQFLFFDPNGYLYAVSKDKLYKAPPPQSDTDNWIARATEIGSGG | soluble
